Source: patent US10227575B2, “Multi-domain enzymes having cutinase activity, compositions comprising same and uses thereof” (OZYMES, priority 2015, dated 2019)
“And” between values parts separate entries of the source, which are not always exact repeats. Identical values can stand only once. Like-named read-outs stand apart in the source and are kept apart here. Marks after values point to notes of the source that are not given here.

Key:
Temperature optimum = format: biochemical; settings: for Relative activity at temperature: highest activity set to 100%
Experimental: For estimation of the temperature optimum, buffer containing pNP-palmitate (see esterase assay in Example 20.1) was pre-incubated to reach the desired temperature, enzyme was then added, and the formation of pNP was assayed. For this experiment, Tris/HCl buffer was replaced with sodium phosphate buffer (50 mM, pH 8.0) to avoid a pH shift at the different temperatures.

[1] = Enzymatic activity in the presence of organic solvents; format: biochemical; settings: buffer only = 100%
Experimental: Enzyme activity in various organic solvents was studied over a concentration range of 1-30% at room temperature. pNP-palmitate was completely dissolved in 2-propanol (8 mM) and then added to 50 mM Tris/HCl buffer pH 8.0 containing up to 30% organic solvent to give a final substrate concentration of 0.8 mM. The reaction was started by addition of enzyme and the formation of pNP was assayed as described above in Example 20.1.

[2] = format: biochemical, Petromyces albertensis; settings: for Residual ochratoxin A (%): 5 ppm Ochratoxin A, 37° C., relative to incubation without enzyme
Experimental: The enzymes purified in Example 18 were tested for their ability to degrade the mycotoxin Ochratoxin A. In general, the mycotoxin was incubated with different concentrations of the enzyme, and the remaining mycotoxin concentration, as well the respective degradation products, were monitored by LC-MS over time (where possible/applicable).
Reactions were performed in 1 mL volumes in glass HPLC vials comprising the mycotoxin to be analyzed and the enzyme to be tested. For Ochratoxin A (Petromyces albertensis, 01877 Sigma), 50 μL of a 100 ppm stock solution in methanol (final concentration of 5 ppm) was added to 910 μL of distilled water and 40 μL of the enzyme to be tested. In control reactions, the volume of enzyme was substituted with distilled water. The reactions were incubated in an Eppendorf thermomixer at 37° C. with shaking at 750 rpm. 100 μL samples were withdrawn at 1, 4 and 24 h for chromatographic analysis.
Mycotoxin analysis was carried out using a Shimadzu LCMS-2020 equipped with a UV/vis detector. Chromatographic separation of 10 μL injected sample was carried out at 30° C. on a Kinetex 2.6 μm XB-C18 column 100 Å (50×2.1 mm) using a binary gradient. For Ochratoxin A, eluent A consisted of water and eluent B consisted of acetonitrile and the UV detection wavelength was 360 nm.
The five enzymes tested were screened for their ability to degrade 5 ppm (5,000 ppb) Ochratoxin A at 37° C.

[3] = Activity of crude culture supernatants from bioreactor; format: biochemical; settings: pNP-dodecanoate
[4] = Enzyme substrate profiles, esterase assays; format: biochemical; settings: highest activity towards a specific substrate set to 100%
Experimental: (§1) Esterase activity was determined by monitoring the formation of para-nitrophenol (pNP) at 410 nm from various pNP-esters using a Beckman UV spectrophotometer (model DU 640). Substrates were completely dissolved in 2-propanol (8 mM) and were then added to 50 mM Tris/HCl buffer pH 8.0 to give a final substrate concentration of 0.8 mM. The reaction (1 mL) was started by adding an appropriate amount of enzyme. One enzyme unit (U) was defined as the amount of enzyme that produced 1 μmol of product (pNP) per min; specific activity was expressed as U/mg protein. A molar extinction coefficient of 15 mM^−1 cm^−1 was used for the calculation.

[5] = Specific activity of purified enzymes (standard esterase assay); format: biochemical
Experimental: In summary, using different techniques for enzyme purification, pure enzyme preparations were obtained and tested for their activity towards a standard esterase substrate, pNP-palmitate. Enzymatic activities of the purified variants are summarized below:
as §1

[6] = Circular dichroism spectroscopy, melting temperature and refolding; format: physicochemical
Experimental: CD spectra were recorded using a Jasco™ J-815 spectrometer operating with the Spectra™ Manager software. Temperature was controlled using a Jasco™ PFD-452S peltier unit. Previously purified protein solutions were adjusted to 0.15 mg/mL (if quantities allowed for) and CD spectra were recorded between 190 and 250 nm using a Quartz cuvette (ID=0.1 cm). Blanks containing buffer only were prepared and used as baseline. Temperature dependent protein unfolding was monitored at 222 nm with thermo profiles ranging from 20 up to 90° C. (2° C. min-1). Samples were kept for 5 min at the respective maximum temperature and protein refolding was monitored using the same conditions as above reversing the thermo profiles. Thermodynamic parameters (Tm, ΔH, ΔS, ΔG) for the folding/unfolding process, if applicable, were calculated using the Spectra™ Manager software.

[7] = Stability in the presence of hydrogen peroxide; format: physicochemical
Experimental: as §1
Purified cutinases were incubated at room temperature in the presence of 0, 30, 100, 300, 1500, and 3000 ppm of hydrogen peroxide. Residual enzyme activity was assayed (see Example 20.1) after 1, 2, 3, and 7 days of incubation.

B1: CfCUT: mature wild-type cutinase from Cellulomonas flavigena, SEQ ID NO: 28 (protein, listed as Cellulomonas flavigena)
chain: APACPDVELVFARGTGEAAGLGIVGRPLERALAAELPGRTVVATAVDYAASSSQASAGPGSGDMVAKVRSRAAACPGTQFVLGGYSQGATVTDLALGIRTGVTAGTALPEDLAARVAAVVVYGNPLGLTRRTIAQAAPAFATRTVEYCNAGDPVCEPGGGRFTAHITYATNGTVLEGARFAAARVTAPAPTPTPGPTGTPAPVPSAEPTPAPGDTCVTASSLQHVRDGRAYPLWMRTYARGSGDPLGVLSSRTVVSLQADGTDTWRKVAAC
Temp. opt. (° C.) (Temperature optimum): 25 °C
Relative activity at temperature (Temperature optimum; 20 ° C.): 69 ± 2%
Relative activity at temperature (Temperature optimum; 25 ° C.): 100* %
Relative activity at temperature (Temperature optimum; 30 ° C.): 63 ± 7%
Relative activity at temperature (Temperature optimum; 35 ° C.): 45 ± 5%
Relative activity at temperature (Temperature optimum; 40 ° C.): 38 ± 8%
Relative activity at temperature (Temperature optimum; 45 ° C.): 1%
Relative enzymatic activity (%) ([1]; 2-Propanol 5% (v/v)): 70 ± 3%
Relative enzymatic activity (%) ([1]; 2-Propanol 10% (v/v)): 17 ± 8%
Relative enzymatic activity (%) ([1]; Acetone 1% (v/v)): 92 ± 9%
Relative enzymatic activity (%) ([1]; Acetone 5% (v/v)): 95 ± 1%
Relative enzymatic activity (%) ([1]; Acetone 10% (v/v)): 52 ± 5%
Relative enzymatic activity (%) ([1]; Dimethyl sulfoxide (DMSO) 10% (v/v)): 105 ± 11%
Relative enzymatic activity (%) ([1]; Dimethyl sulfoxide (DMSO) 20% (v/v)): 107 ± 1%
Relative enzymatic activity (%) ([1]; Dimethyl sulfoxide (DMSO) 30% (v/v)): 57 ± 15%
Relative enzymatic activity (%) ([1]; Dimethylformamide (DMF) 5% (v/v)): 101 ± 17%
Relative enzymatic activity (%) ([1]; Methanol 10% (v/v)): 115 ± 11%
Relative enzymatic activity (%) ([1]; Methanol 20% (v/v)): 62 ± 3%
Residual ochratoxin A (%) ([2]; 1 h): 11%
Residual ochratoxin A (%) ([2]; 4 h): 2%
Residual ochratoxin A (%) ([2]; 24 h): 0%
Ochratoxin A Degradation per U and h ([2]; per 1 U of enzyme (pNP standard test) and hour at 37° C.): 3 µmol
activity of crude culture supernatant [3]: 0.5 U/mL
Relative activity, pNP-acetate (C2) [4]: 6%
Relative activity, pNP-butyrate (C4) [4]: 93 ± 8%
Relative activity, pNP-caprylate (C8) [4]: 11 ± 2%
Relative activity, pNP-decanoate (C10) [4]: 40 ± 5%
Relative activity, pNP-myristate (C14) [4]: 47 ± 8%
Relative activity, pNP-palmitate (C16) [4]: 100* %
Enzymatic activity of the purified variant ([5]; pNP-palmitate): 26 ± 1 U/mg
Spec. Act. (U/mg) ([5]; towards pNP-palmitate (standard assay)): 26 ± 1 U/mg
refolding ([6]; CD at 222 nm): did not show any refolding
melting temperature (Tm) ([6]; CD at 222 nm, unfolding): 65.2 °C
Tm (° C.) ([6]; estimated using CD-spectroscopy): 65 ± 1 °C
Relative activity (%) after exposure to hydrogen peroxide ([7]; H2O2 30 ppm, Day 0): 101 ± 22%
Relative activity (%) after exposure to hydrogen peroxide ([7]; H2O2 30 ppm, Day 1): 89 ± 8%
Relative activity (%) after exposure to hydrogen peroxide ([7]; H2O2 30 ppm, Day 2): 82 ± 8%
Relative activity (%) after exposure to hydrogen peroxide ([7]; H2O2 30 ppm, Day 3): 76 ± 6%
Relative activity (%) after exposure to hydrogen peroxide ([7]; H2O2 30 ppm, Day 7): 72 ± 7%
Relative activity (%) after exposure to hydrogen peroxide ([7]; H2O2 100 ppm, Day 0): 92 ± 5%
Relative activity (%) after exposure to hydrogen peroxide ([7]; H2O2 100 ppm, Day 1): 114 ± 15%
Relative activity (%) after exposure to hydrogen peroxide ([7]; H2O2 100 ppm, Day 2): 118 ± 15%
Relative activity (%) after exposure to hydrogen peroxide ([7]; H2O2 100 ppm, Day 3): 92 ± 11%
Relative activity (%) after exposure to hydrogen peroxide ([7]; H2O2 100 ppm, Day 7): 94 ± 7%
Relative activity (%) after exposure to hydrogen peroxide ([7]; H2O2 300 ppm, Day 0): 93 ± 12%
Relative activity (%) after exposure to hydrogen peroxide ([7]; H2O2 300 ppm, Day 1): 106 ± 20%
Relative activity (%) after exposure to hydrogen peroxide ([7]; H2O2 300 ppm, Day 2): 118 ± 12%
Relative activity (%) after exposure to hydrogen peroxide ([7]; H2O2 300 ppm, Day 3): 102 ± 14%
Relative activity (%) after exposure to hydrogen peroxide ([7]; H2O2 300 ppm, Day 7): 106 ± 13%
Relative activity (%) after exposure to hydrogen peroxide ([7]; H2O2 1,500 ppm, Day 0): 126 ± 1%
Relative activity (%) after exposure to hydrogen peroxide ([7]; H2O2 1,500 ppm, Day 1): 106 ± 12%
Relative activity (%) after exposure to hydrogen peroxide ([7]; H2O2 1,500 ppm, Day 2): 109 ± 2%
Relative activity (%) after exposure to hydrogen peroxide ([7]; H2O2 1,500 ppm, Day 3): 95 ± 4%
Relative activity (%) after exposure to hydrogen peroxide ([7]; H2O2 1,500 ppm, Day 7): 54 ± 16%
Relative activity (%) after exposure to hydrogen peroxide ([7]; H2O2 3,000 ppm, Day 0): 128% and 128 ± 18%
Relative activity (%) after exposure to hydrogen peroxide ([7]; H2O2 3,000 ppm, Day 1): 115 ± 2%
Relative activity (%) after exposure to hydrogen peroxide ([7]; H2O2 3,000 ppm, Day 2): 99 ± 23%
Relative activity (%) after exposure to hydrogen peroxide ([7]; H2O2 3,000 ppm, Day 3): 60 ± 6%
Relative activity (%) after exposure to hydrogen peroxide ([7]; H2O2 3,000 ppm, Day 7): 35% and 35 ± 1%
